These results are taken from patent US20080194019.

Changes are numbered by the printed parent chain. Numbers in names are those of the source.

The target of data set [1] is LxT peptide library (x-x-x-x-Leu-x-Thr-x-x-x peptides with a fixed lysine tail K-K-K).
The target in data set [2] is MBP-AMPKa (1-312) bacterial fusion protein.
The target of data set [3] is R-T peptide library (arginine fixed at the -1 position of a threonine phosphoacceptor).
In data set [4] the target is SAMS peptide.
Data set [5] has as its target T1, STRAD (human, from pCDNA4 HisMax), Q7RTN6.
T1 chain: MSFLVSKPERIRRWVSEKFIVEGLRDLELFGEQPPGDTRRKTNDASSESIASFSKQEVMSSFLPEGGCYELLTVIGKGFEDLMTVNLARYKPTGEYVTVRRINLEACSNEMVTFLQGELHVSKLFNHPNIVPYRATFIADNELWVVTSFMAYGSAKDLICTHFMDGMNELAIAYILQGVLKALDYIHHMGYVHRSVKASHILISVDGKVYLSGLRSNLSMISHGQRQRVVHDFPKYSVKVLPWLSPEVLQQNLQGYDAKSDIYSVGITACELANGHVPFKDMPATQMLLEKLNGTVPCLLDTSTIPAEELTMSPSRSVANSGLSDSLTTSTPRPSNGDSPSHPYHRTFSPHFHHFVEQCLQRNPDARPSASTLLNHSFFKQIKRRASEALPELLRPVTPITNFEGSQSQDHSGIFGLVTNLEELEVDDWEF

B1: STRAD-activated LKB1 (Flag-tagged wild-type human LKB1 co-expressed with STRAD, Flag immunoprecipitate) (protein)
chain 1: MEVVDPQQLGMFTEGELMSVGMDTFIHRIDSTEVIYQPRRKRAKLIGKYLMGDLLGEGSYGKVKEVLDSETLCRRAVKILKKKKLRRIPNGEANVKKEIQLLRRLRHKNVIQLVDVLYNEEKQKMYMVMEYCVCGMQEMLDSVPEKRFPVCQAHGYFCQLIDGLEYLHSQGIVHKDIKPGNLLLTTGGTLKISDLGVAEALHPFAADDTCRTSQGSPAFQPPEIANGLDTFSGFKVDIWSAGVTLYNITTGLYPFEGDNIYKLFENIGKGSYAIPGDCGPPLSDLLKGMLEYEPAKRFSIRQIRQHSWFRKKHPPAEAPVPIPPSPDTKDRWRSMTVVPYLEDLHGADEDEDLFDIEDDIIYTQDFTVPGQVPEEEASHNGQRRGLPKAVCMNGTEAAQLSTKSRAEGRAPNPARKACSASSKIRRLSACKQQ
chain 2: T1 chain
As for B1, in data set [1], the “phosphorylation of degenerate peptide libraries (32P incorporation, p81 paper)” value is recorded as “leucine at the -2 position was strongly selected”. In data set [2], the “AMPK kinase activity towards the SAMS peptide after in vitro phosphorylation by LKB1” value was “induced AMPK kinase activity an average of 27 and 50 fold, respectively”; the “trans-phosphorylation of MBP-AMPKα in vitro” value was “co-expression of LKB1 with STRAD led to a dramatic proportional increase in LKB1 autophosphorylation and trans-phosphorylation of MBP-AMPKα”. The “phosphorylation of degenerate peptide libraries (32P incorporation, p81 paper)” value in data set [3] is on record as “Arginine in the -1 position was selected over random amino acids”.

B2: Flag-tagged human LKB1, wild-type, immunoprecipitated from HT1080 cells (protein)
chain: B1 chain 1
As to B2, in data set [2], the “AMPK kinase activity towards the SAMS peptide after in vitro phosphorylation by LKB1” value was “induced AMPK kinase activity an average of 27 and 50 fold, respectively”; the “in vitro phosphorylation of MBP-AMPKα (32P incorporation; phospho-Thr172 immunoblot)” value was “wild-type but not kinase-dead LKB1 immunoprecipitated from mammalian cells efficiently phosphorylated a bacterially expressed maltose-binding protein (MBP) fusion product of the AMPKα catalytic subunit in vitro”. The “phosphorylation of the SAMS peptide (32P γ-ATP)” value in data set [4] is “LKB1 alone was incapable of detectably phosphorylating the SAMS peptide”. Also, in data set [5], the “LKB1 autophosphorylation in vitro” value is given as “co-expression of LKB1 with STRAD led to a dramatic proportional increase in LKB1 autophosphorylation”.

B3: Flag-tagged human LKB1, kinase dead (K78I), immunoprecipitated from HT1080 cells (protein)
chain: B1 chain 1 with K78I
In the case of B3, in data set [2], the “AMPK kinase activity towards the SAMS peptide after in vitro kinase reaction with LKB1” value is “Kinase-inactive LKB1 alone or coexpressed with STRAD was unable to activate AMPK” and the “in vitro phosphorylation of MBP-AMPKα (32P incorporation; phospho-Thr172 immunoblot)” value is listed as “wild-type but not kinase-dead LKB1 immunoprecipitated from mammalian cells efficiently phosphorylated”.
